Measured values: paper PMC3349575

Target: XD-CGFP fusion protein (X domain of the measles virus phosphoprotein fused to the C-terminal half of eGFP) (UniProt P03422)
Assay: split-GFP reassembly assay (fluorescence to OD600 ratio of E. coli co-expressing NGFP-N_TAIL and XD-CGFP)
Conditions: parent: est. 1.1; read off a plot

Sequence of UniProt P03422 (P03422 459-507): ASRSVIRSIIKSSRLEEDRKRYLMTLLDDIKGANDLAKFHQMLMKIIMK

Row | Substance | response (x10^4 fluorescence intensity / OD600)
1 | NGFP-wtN_TAIL fusion protein (C-terminal domain of the measles virus nucleoprotein fused to the N-terminal half of eGFP) mutant 1 (substitutions not printed) | 1.1
2 | NGFP-wtN_TAIL fusion protein (C-terminal domain of the measles virus nucleoprotein fused to the N-terminal half of eGFP) mutant 2 (substitutions not printed) | 0.9
3 | NGFP-wtN_TAIL fusion protein (C-terminal domain of the measles virus nucleoprotein fused to the N-terminal half of eGFP) mutant 3 (substitutions not printed) | 0.54
